± gives the uncertainty stated by the source.
B1: KAT8 regulatory NSL complex subunit 2, residues 28 to 91; numbered along this chain, Q9H9L4 (parent)
chain: CAFTHRPCSHPRLEGQEFCIKHILEDKNAPFKQCSYISTKNGKRCPNAAPKPEKKDGVSFCAEH

Variants of: B1
Test: abundance fitness (aPCA) (normalised: wild type 0, dead -1); higher = more abundant; growth selection in yeast, the domain comes from the species named
Conditions: Homo sapiens

| Variant | abundance fitness |
| --- | --- |
| CAFTHRPCSHPRLEGQEFCIKHILEDKNAPFKQCSYISTKNGFRCPNAAPKPEKKDGVSFCAEH [K43F] | -0.172 ± 0.076 |
| CAFTHRPCSHPRLEGQEFCIKHILEDKNAPFKQCSYISTKNGGRCPNAAPKPEKKDGVSFCAEH [K43G] | -0.144 ± 0.066 |
| CAFTHRPCSHPRLEGQEFCIKHILEDKNAPFKQCSYISTKNGHRCPNAAPKPEKKDGVSFCAEH [K43H] | -0.063 ± 0.064 |
| CAFTHRPCSHPRLEGQEFCIKHILEDKNAPFKQCSYISTKNGIRCPNAAPKPEKKDGVSFCAEH [K43I] | -0.181 ± 0.088 |
| CAFTHRPCSHPRLEGQEFCIKHILEDKNAPFKQCSYISTKNGLRCPNAAPKPEKKDGVSFCAEH [K43L] | -0.101 ± 0.052 |
| CAFTHRPCSHPRLEGQEFCIKHILEDKNAPFKQCSYISTKNGMRCPNAAPKPEKKDGVSFCAEH [K43M] | -0.203 ± 0.092 |
| CAFTHRPCSHPRLEGQEFCIKHILEDKNAPFKQCSYISTKNGNRCPNAAPKPEKKDGVSFCAEH [K43N] | 0.027 ± 0.095 |
| CAFTHRPCSHPRLEGQEFCIKHILEDKNAPFKQCSYISTKNGPRCPNAAPKPEKKDGVSFCAEH [K43P] | -0.072 ± 0.056 |
| CAFTHRPCSHPRLEGQEFCIKHILEDKNAPFKQCSYISTKNGQRCPNAAPKPEKKDGVSFCAEH [K43Q] | -0.057 ± 0.13 |
| CAFTHRPCSHPRLEGQEFCIKHILEDKNAPFKQCSYISTKNGRRCPNAAPKPEKKDGVSFCAEH [K43R] | -0.055 ± 0.034 |
| CAFTHRPCSHPRLEGQEFCIKHILEDKNAPFKQCSYISTKNGSRCPNAAPKPEKKDGVSFCAEH [K43S] | -0.042 ± 0.048 |
| CAFTHRPCSHPRLEGQEFCIKHILEDKNAPFKQCSYISTKNGTRCPNAAPKPEKKDGVSFCAEH [K43T] | -0.028 ± 0.051 |
| CAFTHRPCSHPRLEGQEFCIKHILEDKNAPFKQCSYISTKNGVRCPNAAPKPEKKDGVSFCAEH [K43V] | -0.074 ± 0.049 |
| CAFTHRPCSHPRLEGQEFCIKHILEDKNAPFKQCSYISTKNGWRCPNAAPKPEKKDGVSFCAEH [K43W] | -0.141 ± 0.074 |
| CAFTHRPCSHPRLEGQEFCIKHILEDKNAPFKQCSYISTKNGYRCPNAAPKPEKKDGVSFCAEH [K43Y] | -0.052 ± 0.072 |
| CAFTHRPCSHPRLEGQEFCIKHILEDKNAPFKQCSYISTKNGKCCPNAAPKPEKKDGVSFCAEH [R44C] | -0.026 ± 0.071 |
| CAFTHRPCSHPRLEGQEFCIKHILEDKNAPFKQCSYISTKNGKDCPNAAPKPEKKDGVSFCAEH [R44D] | -0.102 ± 0.091 |
| CAFTHRPCSHPRLEGQEFCIKHILEDKNAPFKQCSYISTKNGKECPNAAPKPEKKDGVSFCAEH [R44E] | -0.139 ± 0.092 |
| CAFTHRPCSHPRLEGQEFCIKHILEDKNAPFKQCSYISTKNGKFCPNAAPKPEKKDGVSFCAEH [R44F] | -0.144 ± 0.089 |
| CAFTHRPCSHPRLEGQEFCIKHILEDKNAPFKQCSYISTKNGKGCPNAAPKPEKKDGVSFCAEH [R44G] | -0.027 ± 0.059 |
| CAFTHRPCSHPRLEGQEFCIKHILEDKNAPFKQCSYISTKNGKHCPNAAPKPEKKDGVSFCAEH [R44H] | -0.051 ± 0.12 |

| Variant | abundance fitness |
| --- | --- |
| CAFTHRPCSHPRLEGQEFCIKHILEDKNAPFKQCSYISTKNGKKCPNAAPKPEKKDGVSFCAEH [R44K] | -0.071 ± 0.06 |
| CAFTHRPCSHPRLEGQEFCIKHILEDKNAPFKQCSYISTKNGKMCPNAAPKPEKKDGVSFCAEH [R44M] | -0.04 ± 0.059 |
| CAFTHRPCSHPRLEGQEFCIKHILEDKNAPFKQCSYISTKNGKNCPNAAPKPEKKDGVSFCAEH [R44N] | -0.014 ± 0.13 |
| CAFTHRPCSHPRLEGQEFCIKHILEDKNAPFKQCSYISTKNGKPCPNAAPKPEKKDGVSFCAEH [R44P] | -0.067 ± 0.058 |
| CAFTHRPCSHPRLEGQEFCIKHILEDKNAPFKQCSYISTKNGKQCPNAAPKPEKKDGVSFCAEH [R44Q] | 0.005 ± 0.065 |
| CAFTHRPCSHPRLEGQEFCIKHILEDKNAPFKQCSYISTKNGKSCPNAAPKPEKKDGVSFCAEH [R44S] | -0.038 ± 0.05 |
| CAFTHRPCSHPRLEGQEFCIKHILEDKNAPFKQCSYISTKNGKTCPNAAPKPEKKDGVSFCAEH [R44T] | -0.029 ± 0.077 |
| CAFTHRPCSHPRLEGQEFCIKHILEDKNAPFKQCSYISTKNGKWCPNAAPKPEKKDGVSFCAEH [R44W] | -0.112 ± 0.052 |
| CAFTHRPCSHPRLEGQEFCIKHILEDKNAPFKQCSYISTKNGKRAPNAAPKPEKKDGVSFCAEH [C45A] | -0.459 ± 0.093 |
| CAFTHRPCSHPRLEGQEFCIKHILEDKNAPFKQCSYISTKNGKREPNAAPKPEKKDGVSFCAEH [C45E] | -0.193 ± 0.09 |
| CAFTHRPCSHPRLEGQEFCIKHILEDKNAPFKQCSYISTKNGKRFPNAAPKPEKKDGVSFCAEH [C45F] | -0.609 ± 0.096 |
| CAFTHRPCSHPRLEGQEFCIKHILEDKNAPFKQCSYISTKNGKRGPNAAPKPEKKDGVSFCAEH [C45G] | -0.427 ± 0.057 |
| CAFTHRPCSHPRLEGQEFCIKHILEDKNAPFKQCSYISTKNGKRHPNAAPKPEKKDGVSFCAEH [C45H] | -0.581 ± 0.12 |
| CAFTHRPCSHPRLEGQEFCIKHILEDKNAPFKQCSYISTKNGKRIPNAAPKPEKKDGVSFCAEH [C45I] | -0.594 ± 0.086 |
| CAFTHRPCSHPRLEGQEFCIKHILEDKNAPFKQCSYISTKNGKRLPNAAPKPEKKDGVSFCAEH [C45L] | -0.441 ± 0.046 |
| CAFTHRPCSHPRLEGQEFCIKHILEDKNAPFKQCSYISTKNGKRMPNAAPKPEKKDGVSFCAEH [C45M] | -0.438 ± 0.061 |
| CAFTHRPCSHPRLEGQEFCIKHILEDKNAPFKQCSYISTKNGKRNPNAAPKPEKKDGVSFCAEH [C45N] | -0.398 ± 0.084 |
| CAFTHRPCSHPRLEGQEFCIKHILEDKNAPFKQCSYISTKNGKRPPNAAPKPEKKDGVSFCAEH [C45P] | -0.561 ± 0.078 |
| CAFTHRPCSHPRLEGQEFCIKHILEDKNAPFKQCSYISTKNGKRRPNAAPKPEKKDGVSFCAEH [C45R] | -0.635 ± 0.059 |
| CAFTHRPCSHPRLEGQEFCIKHILEDKNAPFKQCSYISTKNGKRSPNAAPKPEKKDGVSFCAEH [C45S] | -0.378 ± 0.049 |
| CAFTHRPCSHPRLEGQEFCIKHILEDKNAPFKQCSYISTKNGKRVPNAAPKPEKKDGVSFCAEH [C45V] | -0.465 ± 0.063 |
